Measurements: patent publication US20050058639A1 (AstraZeneca / MedImmune, published 2005)

T1: human RANTES (human, UniProt P13501 24-91)
T1 construct: also called hRANTES
T1 sequence (looked up): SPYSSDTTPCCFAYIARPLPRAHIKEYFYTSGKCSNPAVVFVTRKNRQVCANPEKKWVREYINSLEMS

T2: human MIP-1-alpha (human, UniProt P10147 24-92, limits assumed)
T2 construct: also called hMIP-1-alpha
T2 sequence (looked up): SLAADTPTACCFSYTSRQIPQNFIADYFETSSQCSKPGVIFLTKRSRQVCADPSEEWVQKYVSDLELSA

T3: recombinant human MCP-2 (human, UniProt P80075 24-99)
T3 construct: also called rhMCP-2
T3 sequence (looked up): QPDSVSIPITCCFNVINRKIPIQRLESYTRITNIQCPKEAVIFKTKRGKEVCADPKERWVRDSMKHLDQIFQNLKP

T4: human GRO/MGSA (human, UniProt P09341 35-107)
T4 construct: also called hGRO/MGSA; GRO-alpha
T4 sequence (looked up): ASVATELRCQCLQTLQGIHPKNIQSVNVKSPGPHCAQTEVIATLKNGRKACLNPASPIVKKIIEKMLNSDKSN


Assays:
recombinant human MCP-4 = molecular target: T5, recombinant human MCP-4 (human, UniProt Q99616 24-98, limits assumed); test: ELISA, coated antigen
T5 construct: also called rhMCP-4
Experimental: (§1) Determining cross-reactivity of anti-MCP-1 antibodies with other chemokines. ELISA plates (Fisher Cat. No. 12-565-136) were coated with 50 μl/well of MCP-1, MCP-2, MCP-3, MCP-4, RANTES, GRO-alpha, MIP-1 alpha, eotaxin, rat MCP-1 and mouse JE (2 μg/ml) in coating buffer (0.1 M carbonate buffer, pH 9.6, NaHCO₃ 8.4 g/L, then incubated at 4° C. overnight. After incubation, the plates were washed with washing buffer (0.05% Tween 20 in PBS) three times. 200 μL/well blocking buffer (0.5% BSA, 0.1% Tween 20, 0.01% Thimerosal in 1×PBS) were added and the plates incubated at room temperature for 1 hour. After incubation, the plates were washed with washing buffer three times. 50 μL/well of hybridoma supernatants, and positive and negative controls (positive control was anti-MCP-1 antibody purchased from R&D Sciences, and negative control was an antibody to Keyhole Limpet Hemocyanin produced at Abgenix) were added and the plates incubated at room temperature for 2 hours. After incubation, the plates were washed three times with washing buffer. […] After incubation, the plates were washed three times with washing buffer and 100 μL/well of TMB (BioFX Lab. Cat. #TMSK-0 100-01) was added and the plates allowed to develop for about 10 minutes.

human RANTES = molecular target: T1, human RANTES; test: ELISA, coated antigen
Experimental: as §1

human MIP-1-alpha = molecular target: T2, human MIP-1-alpha; test: ELISA, coated antigen
Experimental: as §1

recombinant human MCP-2 = molecular target: T3, recombinant human MCP-2; test: ELISA, coated antigen
Experimental: as §1

[1] = molecular target: T6, human monocyte chemo-attractant protein-1 (MCP-1) (human, UniProt P13500 24-99); test: ELISA, coated antigen
T6 construct: 76-residue recombinant protein from E. coli, bought (PeproTech); also called hMCP-1(MCAF); human MCP-1
Experimental: as §1

[2] = molecular target: T7, recombinant mouse JE/MCP-1 (mouse, UniProt P10148 24-148); test: ELISA, coated antigen
T7 construct: also called rmJE/MCP-1
Experimental: as §1

rat MCP-1 = rat MCP-1 (rat, UniProt P14844 24-148); test: ELISA, coated antigen
Experimental: as §1

recombinant human MCP-3 = molecular target: T8, recombinant human MCP-3 (human, UniProt P80098 24-99); test: ELISA, coated antigen
T8 construct: also called rhMCP-3
Experimental: as §1

human GRO/MGSA = molecular target: T4, human GRO/MGSA; test: ELISA, coated antigen
Experimental: as §1

human eotaxin = molecular target: T9, human eotaxin (human, UniProt P51671 24-97); test: ELISA, coated antigen
T9 construct: also called hEotaxin
Experimental: as §1

[3] = molecular target: T6, human monocyte chemo-attractant …; test: ELISA, hybridoma supernatant on coated MCP-1
Experimental: Selection of candidate antibodies for ELISA. After 14 days of culture, hybridoma supernatants were screened for MCP-1-specific monoclonal antibodies. The ELISA plates (Fisher, Cat. No. 12-565-136) were coated with 50 μl/well of MCP-1 (2 μg/mL) in Coating Buffer (0.1 M Carbonate Buffer, pH 9.6, NaHCO₃8.4 g/L), then incubated at 4° C. overnight. After incubation, the plates were washed with Washing Buffer (0.05% Tween 20 in PBS) three times. 200 μl/well Blocking Buffer (0.5% BSA, 0.1% Tween 20, 0.01% Thimerosal in 1× PBS) were added and the plates incubated at room temperature for 1 hour. After incubation, the plates were washed with Washing Buffer three times. 50 μL/well of hybridoma supernatants, and positive and negative controls were added and the plates incubated at room temperature for 2 hours.
The positive control used throughout was XMG2 MCP-1 Group 1, footpad N160-7 and the negative control was XMG2 KLH Group 1, footpad L627-6. After incubation, the plates were washed three times with Washing Buffer. […] In the secondary screen, three sets of samples (positives in first screening) were screened, one set for hIgG detection, one set for hKappa detection, and one set for hlambda detection. After incubation, the plates were washed three times with Washing Buffer. 100 μL/well of TMB (BioFX Lab. Cat. #TMSK-0100-01) were added and the plates allowed to develop for about 10 minutes (until negative control wells barely started to show color), then 50 μL/well stop solution (TMB Stop Solution (BioFX Lab. Cat. #STPR-0100-01) were added and the plates read on an ELISA plate reader at wavelength 450 nm. The OD readings from the positive wells are presented in Table 9.

[4] = molecular target: T6, human monocyte chemo-attractant …; test: cell-based or functional assay

T6 sequence (P13500 24-99): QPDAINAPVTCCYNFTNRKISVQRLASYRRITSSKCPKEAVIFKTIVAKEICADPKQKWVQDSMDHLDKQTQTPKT
T8 sequence (P80098 24-99 limits assumed): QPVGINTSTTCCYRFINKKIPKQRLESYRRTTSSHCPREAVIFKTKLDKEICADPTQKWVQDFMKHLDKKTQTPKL
rat MCP-1, sequence (P14844 24-148 limits assumed): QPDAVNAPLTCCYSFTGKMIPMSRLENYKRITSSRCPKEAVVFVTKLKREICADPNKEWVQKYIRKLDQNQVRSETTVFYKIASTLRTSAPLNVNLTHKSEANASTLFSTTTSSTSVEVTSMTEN

Binder | ELISA OD (recombinant human MCP-4) | ELISA OD (human RANTES) | ELISA OD (human MIP-1-alpha) | ELISA OD (recombinant human MCP-2) | ELISA OD [1] | ELISA OD [2] | ELISA OD (rat MCP-1) | ELISA OD (recombinant human MCP-3) | ELISA OD (human GRO/MGSA) | ELISA OD (human eotaxin) | ELISA OD-MCP-1 [3] | IC50 Ca++ Flux [4] | IC50 Chemotaxis [4]
anti-MCP-1 mAb 1.1.1 (antibody, human IgG2, kappa, V domains shown) VH: QVQLVQSGAEVKKPGASVKVSCKVSGYTLTELSMHWVRQAPGNGLEWMGGFDPEDGETIYAQRFQGRVVMTEDPSTDTAYMELSSLRSEDTAVYYCATNEFWSGYFDYWGQGTLVTVSS VL: DIVMTQSPDSLAMSLGERATINCKSSQSVLYSSNNKNYLVWYQQKPGQPPKLLIYWASIRESGVPDRFSSSGSETDFTLTISSLQAEDVAVYYCQQYFSSPWTFGQGTKVEIKR | 0.052 OD450 | 0.044 OD450 | 0.044 OD450 | 0.051 OD450 | 0.944 OD450 | 0.045 OD450 | 0.051 OD450 | 0.064 OD450 | 0.047 OD450 | 0.042 OD450 | 3.64 OD450 | 0.24 µg/mL | 0.27 µg/mL
anti-MCP-1 mAb 1.5.1 (antibody, V domains shown) VH: QVQLVQSGAEVKKPGASVKVSCKVSGYTLTELSMHWVRQAPGKGLEWMGGFDPEDDETIYAQKFQGRVTMTEDTSTDTAYMELSSLRSEDTAVYFCATNDFWSGYFDCWDQGTLVTVSS VL: not shown | 0.05 OD450 | 0.049 OD450 | 0.041 OD450 | 0.047 OD450 | 1.18 OD450 | 0.043 OD450 | 0.045 OD450 | 0.069 OD450 | 0.048 OD450 | 0.043 OD450 | 0.51 OD450 | 0.21 µg/mL | 0.34 µg/mL
anti-MCP-1 mAb 1.6.1 (antibody, V domains shown) VH: QVQLVQSGAEVKKPGASVKVSCKVSGYTLTELSMHWVRQAPGKGLEWMGGFDPEDGETIYAQKFQGRVTMTEDTSTDTAYMELSSLRSEDTAVYYCATWYSGIYLAFDIWGQGTMVTVSS VL: EIVLTQSPDFQSVTPKEKVTITCRASQSIGSSLHWYQQKPDQSPKLLIKYASQSFSGVPSRFSGSGSGTDFTLTINSLEAEDAATYYCHQSSSLPHTFGGGTKVEIKR | 0.044 OD450 | 0.046 OD450 | 0.046 OD450 | 0.042 OD450 | 0.375 OD450 | 0.042 OD450 | 0.062 OD450 | 0.046 OD450 | 0.046 OD450 | 0.042 OD450 | 3.92 OD450 | 1 µg/mL | 12 µg/mL

Now from value to binder:

ELISA OD (recombinant human MCP-4) | ELISA OD (human RANTES) | ELISA OD (human MIP-1-alpha) | ELISA OD (recombinant human MCP-2) | ELISA OD [1] | ELISA OD [2] | ELISA OD (rat MCP-1) | ELISA OD (recombinant human MCP-3) | ELISA OD (human GRO/MGSA) | ELISA OD (human eotaxin) | ELISA OD-MCP-1 [3] | IC50 Ca++ Flux [4] | IC50 Chemotaxis [4] | Binder
0.046 OD450 | 0.045 OD450 | 0.045 OD450 | 0.048 OD450 | 1.16 OD450 | 0.045 OD450 | 0.049 OD450 | 0.054 OD450 | 0.06 OD450 | 0.047 OD450 | 3.47 OD450 | 0.26 µg/mL | 0.88 µg/mL | anti-MCP-1 mAb 1.8.1 (antibody, V domains shown) VH: QVQLVQSGAEVKKPGASVKVSCKVSGHIFTELSIHWVRQAPGKGLEWMGGFDPEDGETIYAQKFQGRVTMTEDTSTDTVYMELSSLRSEDTAVYYCATNDFWSGYFDYWGQGTLVTVSS VL: DIVMTQSPGSLAVSLGERATINCKSSQSILFRSNNKNYLTWYQQKPGQPPKLLIYWASIRESGVPDRFSGSGSGSNFTLTITSLQAEDVAIYYCQQYYSSPWTFGQGTKVEIKR
0.041 OD450 | 0.043 OD450 | 0.041 OD450 | 0.535 OD450 | 0.235 OD450 | 0.059 OD450 | 0.07 OD450 | 0.449 OD450 | 0.042 OD450 | 0.194 OD450 | 3.96 OD450 |  |  | anti-MCP-1 mAb 3.2 (antibody, V domains shown, also called 3.2 (neat)) VH: QVQLVQSGAEVKKPGASVKVSCKVSGYTLSELSMHWVRQAPGKGLEWMGGFDPEDGEIIHAQKFQGRVTMTEDTSTDTAYMELSSLRSEDTAVYYCATGDFWSGYYLDWWGQGTLVTVSS VL: EIVMMQSPATLSVSPGERATLSCRASQSVNSNLAWYQQKPGQAPRLLINGASTRATGIPARFSGSGSGTEFTLTISSLQSEDFAIYYCQQYNDWPTFTFGGGTKVEINR
